{"source": "patent US20190169305A1", "about": "(TEIKYO HEISEI UNIVERSITY, published 2019)", "binders": {"B1": {"name": "4E6 monomer (anti-hTRAIL-R2 VHH antibody/Myc-Tag, expressed in E. coli) (VHH)", "VHH": "EVQLVESGGGSVQAGDSLRLSCAASGRTFGSIRVGWFRQTPGKEREFVAAINRNDGTTYYADSVKGRFTISRDNAKNTVYMQMASLKPEDTAVYYCAAGLQYNRSADRVPVGAVYWGQGTQVTVSS", "notes": "also called 4E6 VHH monomer; 4E6 monomeric protein"}}, "key": {"[1]": {"molecular_target": "T1, bovine serum albumin (bovine, UniProt P02769 25-607)", "T1 construct": "also called BSA; BSA negative antigen", "T1 sequence (P02769 25-607 limits assumed)": "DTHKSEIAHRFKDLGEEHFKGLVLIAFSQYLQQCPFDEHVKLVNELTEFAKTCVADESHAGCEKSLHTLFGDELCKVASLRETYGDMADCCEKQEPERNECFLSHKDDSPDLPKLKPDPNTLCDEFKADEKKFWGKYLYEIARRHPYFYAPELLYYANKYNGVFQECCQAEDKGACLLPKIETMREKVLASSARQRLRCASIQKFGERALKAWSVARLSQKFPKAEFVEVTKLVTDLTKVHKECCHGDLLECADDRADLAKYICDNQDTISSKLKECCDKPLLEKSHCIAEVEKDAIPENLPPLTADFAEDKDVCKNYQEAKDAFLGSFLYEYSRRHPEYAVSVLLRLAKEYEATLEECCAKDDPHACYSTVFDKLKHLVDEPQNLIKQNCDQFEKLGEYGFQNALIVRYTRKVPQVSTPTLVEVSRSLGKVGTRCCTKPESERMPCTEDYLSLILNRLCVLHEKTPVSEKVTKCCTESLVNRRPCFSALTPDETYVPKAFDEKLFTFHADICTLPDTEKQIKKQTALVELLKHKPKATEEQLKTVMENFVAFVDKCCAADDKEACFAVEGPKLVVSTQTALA", "assay": "ELISA, BSA coated at 1 or 10 µg/ml, 4E6 monomer at 1 µg/ml, detected with anti-Myc 9E10 and anti-mouse IgG HRP, OD450"}, "[2]": {"molecular_target": "T2, human TRAIL-R1:alpaca Fc (hTRAIL-R1:Fc) (human; Lama pacos (alpaca))", "T2 construct": "also called hTRAIL-R1:Fc antigen; recombinant human TRAIL-R1 ECD", "T2 chain": "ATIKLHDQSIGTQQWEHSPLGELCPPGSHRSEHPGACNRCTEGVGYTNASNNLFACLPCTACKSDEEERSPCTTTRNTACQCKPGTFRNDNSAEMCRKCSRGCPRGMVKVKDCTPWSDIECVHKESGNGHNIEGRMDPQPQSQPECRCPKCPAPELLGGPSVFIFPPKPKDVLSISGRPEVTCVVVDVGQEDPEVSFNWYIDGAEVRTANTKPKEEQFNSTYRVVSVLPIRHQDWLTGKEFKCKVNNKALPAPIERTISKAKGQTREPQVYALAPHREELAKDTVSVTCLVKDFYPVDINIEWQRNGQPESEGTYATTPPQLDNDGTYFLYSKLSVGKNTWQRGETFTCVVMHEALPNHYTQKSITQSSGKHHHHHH", "assay": "ELISA, antigens coated at 1 µg/ml, VHH monomer at 10 µg/ml, absorbance 450 nm"}, "[3]": {"molecular_target": "T3, mouse TRAIL-R2:alpaca Fc (mTRAIL-R2:Fc) (mouse; Lama pacos (alpaca), UniProt Q9QZM4 52-177)", "T3 construct": "range 52-177;range 102-335; also called mTRAIL (mouse TRAIL)-R2:Fc", "T3 sequence": "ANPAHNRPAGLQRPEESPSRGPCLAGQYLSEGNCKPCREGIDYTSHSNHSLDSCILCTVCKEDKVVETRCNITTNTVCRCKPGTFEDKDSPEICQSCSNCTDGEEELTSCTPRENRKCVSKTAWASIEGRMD", "assay": "ELISA, antigens coated at 1 µg/ml, VHH monomer at 10 µg/ml, absorbance 450 nm"}, "[4]": {"molecular_target": "T4, human TRAIL-R2:alpaca Fc (hTRAIL-R2:Fc) (human; Lama pacos (alpaca))", "T4 construct": "also called hTRAIL-R2:Fc antigen; recombinant human TRAIL-R2:Fc antigen", "T4 chain": "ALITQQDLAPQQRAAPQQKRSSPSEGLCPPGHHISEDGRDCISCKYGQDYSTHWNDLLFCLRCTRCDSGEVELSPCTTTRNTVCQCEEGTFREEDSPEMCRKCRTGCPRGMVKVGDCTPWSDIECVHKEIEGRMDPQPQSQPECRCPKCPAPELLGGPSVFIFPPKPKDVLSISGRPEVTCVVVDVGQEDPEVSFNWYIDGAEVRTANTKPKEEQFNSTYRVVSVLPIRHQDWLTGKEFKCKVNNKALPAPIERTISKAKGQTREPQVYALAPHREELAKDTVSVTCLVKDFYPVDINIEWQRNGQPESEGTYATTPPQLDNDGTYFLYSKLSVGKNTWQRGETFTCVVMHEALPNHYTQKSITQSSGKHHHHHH", "assay": "SPR, Biacore X-100, multi-cycle kinetics, 4E6 monomer as analyte (0.919-117.6 nM)"}}}
{"binder": "B1", "values": [{"measurement": "binding result", "setting": "[1]", "value": "no binding (tested: 1 µg/ml)"}, {"measurement": "binding result", "setting": "[2]", "value": "no binding (tested: 10 µg/ml)"}, {"measurement": "binding result", "setting": "[3]", "value": "no binding (tested: 10 µg/ml)"}, {"measurement": "Kd", "setting": "[4]", "value": 0.075, "unit": "nM"}]}
